Results taken from US20110135573A1, “METALLOPROTEINASE 9 AND METALLOPROTEINASE 2 BINDING PROTEINS” (DYAX CORP., priority 2009, published 2011).
Substitutions are numbered along the chain they refer to.

Legend:
MMP-9 [1] = target: T1, MMP-9 (Homo sapiens, UniProt P14780); assay: Initial screen of sFabs/IgG1s for inhibition of MMP-9 at 1 μM; format: biochemical
Description: After sequencing analysis, the phage display were converted into sFabs and then into IgG1s. Their ability to inhibit MMP-9 and other MMPs (1, 3, 7, 8, 9, 10, 12, 13, 14) was determined by usual means. Compounds were initially screened at 1 μM against MMP-9 and those compounds that inhibited MMP-9 >80% were subjected to additional screens against purified recombinant human MMP-2 (APMA activated enzyme) and other MMPs. For these additional screens, an IC50 value was determined. Ki values and specificities of the inhibitors were determined as described below.
Target sequence in this assay (P14780 94-707): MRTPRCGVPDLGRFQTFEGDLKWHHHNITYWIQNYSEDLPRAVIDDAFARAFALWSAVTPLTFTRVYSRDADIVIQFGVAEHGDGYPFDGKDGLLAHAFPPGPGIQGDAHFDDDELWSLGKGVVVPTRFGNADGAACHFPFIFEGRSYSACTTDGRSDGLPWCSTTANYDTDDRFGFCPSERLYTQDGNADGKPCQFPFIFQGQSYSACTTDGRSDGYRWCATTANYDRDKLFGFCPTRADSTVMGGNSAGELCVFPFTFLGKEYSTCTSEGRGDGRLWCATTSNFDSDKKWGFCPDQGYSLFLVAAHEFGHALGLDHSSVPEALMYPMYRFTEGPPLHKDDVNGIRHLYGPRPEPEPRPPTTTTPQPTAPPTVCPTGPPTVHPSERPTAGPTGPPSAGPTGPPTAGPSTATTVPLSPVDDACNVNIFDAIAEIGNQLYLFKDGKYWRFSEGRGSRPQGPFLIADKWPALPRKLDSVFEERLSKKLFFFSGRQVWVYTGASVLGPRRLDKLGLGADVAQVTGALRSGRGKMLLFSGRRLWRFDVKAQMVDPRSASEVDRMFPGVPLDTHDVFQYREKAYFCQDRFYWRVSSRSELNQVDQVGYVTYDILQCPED

MMP-9 [2] = target: T1, MMP-9; assay: Binding of non-inhibiting Fabs to MMP-9 (apparent KD, dissociation t1/2, TIMP-1 competition); conditions: Fab
Target sequence in this assay (P14780 94-707): as above

human MMP-2 = target: T2, human MMP-2 (Homo sapiens, UniProt P08253); assay: Enzyme inhibition assay (single point inhibition, IC50/Ki,app), substrate M-2350; format: biochemical; conditions: light chain shuffled antibodies
T2 construct: purchased Biomol SE-237
Description: (§1) 343 unique sFabs from the anti-MMP-9/-2 M237-D02 affinity maturation campaign were discovered by phage display, produced in small scale (6 mL cultures in deep 24-well plates) and screened to select inhibitors with sub-nanomolar potency against the human enzymes and at least single-digit nanomolar potency toward the mouse orthologues. […] Isolates which appeared potent against both human and mouse MMP-2 were then subjected to IC50 analysis against hMMP-9. Sub-nanomolar inhibitors of hMMP-9 were further tested by IC50 analysis against mMMP-9 and h/m MMP-2, if sufficient small-scale sFab material was available. Thirteen potential h/m MMP-9/-2 sFab inhibitors were then produced in medium scale (250 mL cultures in flasks) and retested for h/m MMP-9 and h/m MMP-2 inhibition. Five potential lead candidates were reformatted as IgGs and retested in enzyme inhibition assays.
(§2) Human MMP-9 (Biomol #SE-244), mouse MMP-9 (R&D Systems #909-MM-010), human MMP-2 (Biomol #SE-237) and mouse MMP-2 (R&D Systems #924-MP-010) were tested at final concentrations of 1 nM, 0.25-0.4 nM, 2.5 nM and 0.2 nM, respectively. Target enzymes were incubated with inhibitor for two hours at 30° C. in reaction buffer (50 mM Tris-HCl pH 7.5, 150 mM NaCl, 5 mM CaCl2, 0.05% Brij-35) in a total volume of 90 μL using a white 96 well plate (Costar). Reactions contained 5 μL of small-scale sFab stock solution (average concentration of 500 nM) for single point inhibition analysis or a concentration series of sFab/IgG for IC50 Ki,app determinations. Commercially available anti-MMP-9 antibodies (Millipore mAb 13415 and R&D Systems polyclonal IgG #AB911) were tested by IC50 analyses using 100 nM and 500 nM as the highest inhibitor concentrations, respectively. An anti-MMP-2 antibody (R&D Systems polyclonal IgG #AF902) was similarly tested with 200 nM as the highest inhibitor concentration. Reactions were initiated by the addition of 10 μL of a 10× concentrated stock of substrate, Mca-Lys-Pro-Leu-Gly-Leu-Dap(Dnp)-Ala-Arg-NH2, (Bachem M-2350), at final concentration of 10 μM and monitored at 30° C. in a Molecular Devices' Gemini fluorescence plate reader. The excitation and emission wavelengths were set at 328 nm and 393 nm, respectively. Kinetic data were acquired by the increase in fluorescence, and initial rates for each condition were plotted against the total inhibitor concentration. Reactions were performed in duplicates and all data replicates were plotted in a single graph and fit to the following equation^1:
(§3) Where A=initial rate observed at each inhibitor concentration; Ao=initial rate observed in the absence of inhibitor; Ainh=initial rate observed for the enzyme inhibitor complex; Inh=concentration of inhibitor; E=total enzyme concentration (treated as a floated parameter); and Ki,app=apparent equilibrium inhibition constant.

Mouse MMP-9 = target: T3, Mouse MMP-9 (Mus musculus, UniProt P41245); assay: as above; format: biochemical; conditions: light chain shuffled antibodies
T3 construct: purchased R&D Systems 909-MM (909-MM-010)
Description: as §1, §2, §3

mouse MMP-2 = target: T4, mouse MMP-2 (Mus musculus, UniProt P33434); assay: as above; format: biochemical; conditions: for inhibition of mouse MMP-2 (in words): light chain shuffled antibodies; for Ki: IgG, Table 12
T4 construct: purchased R&D Systems 924-MP-010
Description: as §1, §2, §3

MMP-9 [3] = target: T1, MMP-9; assay: as above; format: biochemical; parameters: Human MMP-9 catalytic domain (BIOMOL, SE-244); purchased BIOMOL SE-244; conditions: light chain shuffled antibodies
Description: as §1
as §2, with “Commercially available anti-MMP-9 antibodies (Millipore mAb 13415 and R&D Systems polyclonal IgG #AB911) were tested by IC50 analyses using 100 nM and 500 nM as the highest inhibitor concentrations, respectively. An anti-MMP-2 antibody (R&D Systems polyclonal IgG #AF902) was similarly tested with 200 nM as the highest inhibitor concentration.” left out, “The excitation and emission wavelengths were set at 328 nm and 393 nm, respectively.” left out, “Reactions were performed in duplicates and all data replicates were plotted in a single graph and fit to the following equation^1:” left out
Target sequence in this assay (P14780 107-444 limits assumed): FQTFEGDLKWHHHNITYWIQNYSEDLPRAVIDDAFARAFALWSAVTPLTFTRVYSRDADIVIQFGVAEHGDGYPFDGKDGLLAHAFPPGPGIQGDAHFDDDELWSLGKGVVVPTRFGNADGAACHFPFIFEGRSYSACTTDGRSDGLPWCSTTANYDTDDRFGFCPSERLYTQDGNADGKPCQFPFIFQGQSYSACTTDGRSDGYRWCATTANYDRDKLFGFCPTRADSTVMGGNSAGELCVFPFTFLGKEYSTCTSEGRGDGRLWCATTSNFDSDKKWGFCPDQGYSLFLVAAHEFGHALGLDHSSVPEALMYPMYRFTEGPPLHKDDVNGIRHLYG

human pro-MMP-9 = target: T5, human pro-MMP-9 (Homo sapiens, UniProt P14780); assay: Biacore 3000 binding to antibody-coated CM5 chip; conditions: Direct capture, 25° C.
T5 construct: the human pro-MMP-9 (R&D, 911-MP); purchased R&D Systems 911-MP
Description: (§4) Experiments were performed at 25° C. with the help of a Biacore 3000 instrument. The MMP-9 binding protein (M0166F10) and the M0237-D02 antibody were coated to a CM5 chip either via standard amine coupling or using an anti-Fc antibody surface. Then either the active, human MMP-9 catalytic domain (BIOMOL, SE-244), the human pro-MMP-9 (R&D, 911-MP), the human TIMP-1 (R&D, 970-TM) or a h-MMP-9/h-TIMP-1 complex were flowed over the antibody surfaces, and binding was recorded.

[4] = target: T6, Human MMP-9 catalytic domain (Homo sapiens, UniProt P14780); assay: Biacore 3000 binding to antibody-coated CM5 chip; conditions: 25° C.
T6 construct: Human MMP-9 catalytic domain (BIOMOL, SE-244); purchased BIOMOL SE-244
Description: as §4

human TIMP-1 = target: T7, human TIMP-1 (Homo sapiens, UniProt P01033); assay: Biacore 3000 binding to antibody-coated CM5 chip; conditions: Direct capture; 25° C.
T7 construct: purchased R&D Systems 970-TM
Description: as §4

h-MMP-9/h-TIMP-1 complex = h-MMP-9/h-TIMP-1 complex (Homo sapiens, UniProt P14780); assay: Biacore 3000 binding to antibody-coated CM5 chip; conditions: Direct capture, 25° C.
Description: The non competitive inhibition model implies that the ternary complex enzyme-substrate-inhibitor can form. It is however possible that this complex cannot form with bigger substrates, in which case the antibody would behave as a competitive inhibitor. In order to address this issue, the ability of M0237-D02 antibody to bind to the h-MMP-9 when the enzyme is complexed to its natural inhibitor h-TIMP-1 was determined. The reasoning is that if the antibody cannot bind to the h-MMP-9/h-TIMP-1 complex, it would probably behave as a competitive inhibitor of this enzyme in the presence of bigger substrates.
as §4

T4 sequence (P33434 110-662): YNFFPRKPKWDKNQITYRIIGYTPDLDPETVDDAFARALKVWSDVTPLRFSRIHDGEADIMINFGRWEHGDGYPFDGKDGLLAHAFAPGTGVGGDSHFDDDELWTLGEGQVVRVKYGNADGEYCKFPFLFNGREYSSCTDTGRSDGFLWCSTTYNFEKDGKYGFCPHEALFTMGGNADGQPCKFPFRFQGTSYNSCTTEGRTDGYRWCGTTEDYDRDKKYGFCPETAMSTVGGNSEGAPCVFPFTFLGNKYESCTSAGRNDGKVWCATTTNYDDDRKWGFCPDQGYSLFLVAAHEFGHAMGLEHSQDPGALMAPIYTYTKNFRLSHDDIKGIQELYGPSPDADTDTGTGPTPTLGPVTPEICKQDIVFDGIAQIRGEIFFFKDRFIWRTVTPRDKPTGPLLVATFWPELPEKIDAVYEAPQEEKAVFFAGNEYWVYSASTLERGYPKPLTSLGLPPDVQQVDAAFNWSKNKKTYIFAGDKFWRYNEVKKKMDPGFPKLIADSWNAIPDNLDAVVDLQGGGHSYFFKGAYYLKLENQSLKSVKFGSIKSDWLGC
T6 sequence (P14780 107-444 limits assumed): as the sequence (P14780 107-444 limits assumed) above
Sequence of h-MMP-9/h-TIMP-1 complex (P14780 107-444 limits assumed): as above
Sequence of h-MMP-9/h-TIMP-1 complex (P01033 24-207 partner): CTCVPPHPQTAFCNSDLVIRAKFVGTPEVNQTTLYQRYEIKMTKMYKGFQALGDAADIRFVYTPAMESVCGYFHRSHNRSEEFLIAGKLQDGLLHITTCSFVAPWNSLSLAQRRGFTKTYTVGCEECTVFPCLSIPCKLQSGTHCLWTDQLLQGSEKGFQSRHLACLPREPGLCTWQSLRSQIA
T3 sequence (P41245 108-730): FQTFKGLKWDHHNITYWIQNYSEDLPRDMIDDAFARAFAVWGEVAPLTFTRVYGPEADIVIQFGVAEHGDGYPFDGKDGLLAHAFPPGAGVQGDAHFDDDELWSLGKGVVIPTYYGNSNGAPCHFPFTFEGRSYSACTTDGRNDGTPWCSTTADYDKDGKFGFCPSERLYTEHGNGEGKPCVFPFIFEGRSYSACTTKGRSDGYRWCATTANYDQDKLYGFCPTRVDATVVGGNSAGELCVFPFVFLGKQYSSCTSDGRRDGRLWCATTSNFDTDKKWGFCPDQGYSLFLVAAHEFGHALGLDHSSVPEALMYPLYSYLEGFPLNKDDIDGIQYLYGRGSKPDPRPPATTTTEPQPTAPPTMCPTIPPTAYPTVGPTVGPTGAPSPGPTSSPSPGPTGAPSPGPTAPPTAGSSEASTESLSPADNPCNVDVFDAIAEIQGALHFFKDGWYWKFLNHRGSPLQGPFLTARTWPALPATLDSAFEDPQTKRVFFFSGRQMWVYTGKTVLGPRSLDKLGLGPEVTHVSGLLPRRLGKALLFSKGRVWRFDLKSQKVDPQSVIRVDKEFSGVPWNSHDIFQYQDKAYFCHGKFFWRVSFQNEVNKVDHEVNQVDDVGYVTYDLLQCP
T5 sequence (P14780 20-707 limits assumed): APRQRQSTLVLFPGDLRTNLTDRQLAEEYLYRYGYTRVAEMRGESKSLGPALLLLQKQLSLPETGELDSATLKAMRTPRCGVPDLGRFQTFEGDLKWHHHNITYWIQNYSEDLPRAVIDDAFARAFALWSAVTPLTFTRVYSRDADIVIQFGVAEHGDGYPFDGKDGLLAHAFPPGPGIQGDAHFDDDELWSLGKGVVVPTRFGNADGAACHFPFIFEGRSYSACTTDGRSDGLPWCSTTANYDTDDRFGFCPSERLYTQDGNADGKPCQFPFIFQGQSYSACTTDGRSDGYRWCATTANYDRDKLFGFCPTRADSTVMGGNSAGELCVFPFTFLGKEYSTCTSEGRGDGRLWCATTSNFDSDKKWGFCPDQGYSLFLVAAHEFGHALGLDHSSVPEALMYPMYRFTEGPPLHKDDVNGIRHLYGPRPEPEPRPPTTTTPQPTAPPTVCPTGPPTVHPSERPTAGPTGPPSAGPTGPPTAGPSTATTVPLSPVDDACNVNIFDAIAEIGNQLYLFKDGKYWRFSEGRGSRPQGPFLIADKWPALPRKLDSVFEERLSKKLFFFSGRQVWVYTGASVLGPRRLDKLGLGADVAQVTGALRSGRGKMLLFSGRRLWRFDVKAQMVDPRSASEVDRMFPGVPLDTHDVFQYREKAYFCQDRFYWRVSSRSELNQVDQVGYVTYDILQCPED
T2 sequence (P08253 110-446 limits assumed): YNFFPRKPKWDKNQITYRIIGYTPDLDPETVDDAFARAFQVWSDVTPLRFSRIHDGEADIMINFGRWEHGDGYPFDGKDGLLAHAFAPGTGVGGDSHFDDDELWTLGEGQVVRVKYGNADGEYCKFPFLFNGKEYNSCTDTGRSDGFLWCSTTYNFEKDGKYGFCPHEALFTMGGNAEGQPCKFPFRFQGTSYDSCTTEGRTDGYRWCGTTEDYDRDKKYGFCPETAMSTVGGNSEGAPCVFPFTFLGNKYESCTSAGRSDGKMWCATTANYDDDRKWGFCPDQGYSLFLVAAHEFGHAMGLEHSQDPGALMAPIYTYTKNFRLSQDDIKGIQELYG
T7 sequence (P01033 24-207): as the sequence (P01033 24-207 partner) above

B1: M0076-D03: Fab that binds MMP-9 but does not inhibit (antibody, V domains shown)
VH: EVQLLESGGGLVQPGGSLRLSCAASGFTFSLYRMNWVRQAPGKGLEWVSYIGSSGGATAYADSVKGRFTISRDNSKNTLYLQMNSLRAEDTAVYYCARGAWYLDSWGQGTLVTVSS
VL: QDIQMTQSPSSLSASVGDRVTITCRASQGIRNDLDWYQQKPGTAPKRLIYSASNLQSGVPSRFSGSGSGTEFTLTISNLQPEDLATYFCLQHNSFPLTFGQGTKVEIK
inhibition of the catalytic activity of MMP-9 (MMP-9 [1]): Neither antibody inhibits
competition with TIMP-1 (MMP-9 [2]): does not compete with TIMP-1
dissociation t1/2 (MMP-9 [2]): 33 min

B2: M0279-A03: MMP-9 specific antibody from light chain shuffling of M237-D02, sFab (antibody, V domains shown)
VH: EVQLLESGGGLVQPGGSLRLSCAASGFTFSQYPMWWVRQAPGKGLEWVSYIVPSGGRTYYADSVKGRFTISRDNSKNTLYLQMNSLRAEDTAVYYCAKDRAYGDYVGWNGFDYWGQGTLVTVSS
VL: QDIQMTQSPATLSVSPGERVTLSCKASHSISRNLAWYQQKPGQAPRLLIFGASTRATGIPARFSGSGSGTEFTLTISSLEAEDFAVYYCQQRRNWPVTFGPGTKLDFK
inhibition of human MMP-2 (in words) (human MMP-2): do not inhibit
inhibition of mouse MMP-9 (in words) (Mouse MMP-9): bind and inhibit
inhibition of mouse MMP-2 (in words) (mouse MMP-2): do not inhibit
inhibition of human MMP-9 (in words) (MMP-9 [3]): bind and inhibit

B3: X0106-C03: germlined, optimized version of M0274-G08, IgG1 (antibody, V domains shown)
VH: B2 VH with Q31V, P33D, Y50V, V52Y, R57A
VL: EIVLTQSPATLSLSPGERATLSCRASQSISSFLAWYQQKPGQAPRLLIYDASYRATGIPARFSGSGSGTDFTLTISSLEPEDFAVYYCQQRGNWPITFGQGTRLEIK
Ki (mouse MMP-2): 3.2 nM

B4: X0106-B02: germlined, optimized version of M0276-F11, IgG1 (antibody, V domains shown)
VH: B2 VH with Q31W, P33D, Y50V, V52Y, P53S, R57P, Y59F
VL: B3 VL
Ki (mouse MMP-2): 4.2 nM

B5: M0288-C08: MMP-9 specific antibody from light chain shuffling of M237-D02, sFab (antibody, V domains shown)
VH: B2 VH
VL: QDIQMTQSPGTLSVSPGERVTLSCRASQSVSSYLAWYQQKPGQAPRLLIYGASTRVTGIPARFSGSGSGTEFTLTISSLQSEDFAVYYCQQRSSWPITFGQGTRLEIK
inhibition of human MMP-2 (in words) (human MMP-2): do not inhibit
inhibition of mouse MMP-9 (in words) (Mouse MMP-9): bind and inhibit
inhibition of mouse MMP-2 (in words) (mouse MMP-2): do not inhibit
inhibition of human MMP-9 (in words) (MMP-9 [3]): bind and inhibit

B6: X0106-A01: germlined, optimized version of M0256-D11, IgG1 (antibody, V domains shown)
VH: B2 VH with Q31H, P33D, Y50V, V52Y, P53S, R57P, Y59F
VL: B3 VL
Ki (mouse MMP-2): 4.7 nM

B7: X0106-F05: germlined, optimized version of M0307-F04, IgG1 (antibody, V domains shown)
VH: B2 VH with Q31L, P33D, Y50V, V52Y, P53S, R57Y, Y59G
VL: B3 VL
Ki (mouse MMP-2): 3 nM

B8: M0078-G07: Fab that binds MMP-9 but does not inhibit (antibody, V domains shown)
VH: EVQLLESGGGLVQPGGSLRLSCAASGFTFSSYTMEWVRQAPGKGLEWVSWISPSGGYTFYADSVKGRFTISRDNSKNTLYLQMNSLRAEDTALYYCARGYSYGSIDLWGRGTLVTVSS
VL: QDIQMTQSPGTLSVSPGERATLSCRASQSVSSDLAWYQHKPGQAPRLLIYGVSTKATGVPARFSGSGSGTEFTLTISSLQSEDLAVYYCQQYHNWPPLTFGGGTKVEIK
inhibition of the catalytic activity of MMP-9 (MMP-9 [1]): Neither antibody inhibits
competition with TIMP-1 (MMP-9 [2]): does not compete with TIMP-1
dissociation t1/2 (MMP-9 [2]): 25 min

B9: X0106-E04: germlined, optimized version of M0275-D03, IgG1 (antibody, V domains shown)
VH: EVQLLESGGGLVQPGGSLRLSCAASGFTFSQYDMWWVRQAPGKGLEWVSVIYPSGTTFYADSVKGRFTISRDNSKNTLYLQMNSLRAEDTAVYYCAKDRAYGDYVGWNGFDYWGQGTLVTVSS
VL: B3 VL
Ki (mouse MMP-2): 3.9 nM

B10: M0166-F10: inhibitory MMP-9 binding antibody (hMMP-9 antibody inhibitor) (antibody, V domains shown)
VH: EVQLLESGGGLVQPGGSLRLSCAASGFTFSPYLMNWVRQAPGKGLEWVSSIYSSGGGTGYADSVKGRFTISRDNSKNTLYLQMNSLRAEDTAVYYCARIYHSSSGPFYGMDVWGQGTTVTVSS
VL: QSELTQPPSASAAPGQRVTISCSGSSSNIGSNTVTWYQKLPGTAPKLLIYNNYERPSGVPARFSGSKSGTSASLAISGLQSEDEADYYCATWDDSLIANYVFGSGTKVTVLGQPKANP
binding of Pro-huMMP-9 (human pro-MMP-9): observed neither
binding of Pro-huMMP-9 (human pro-MMP-9; listed as 539A-M0166F10): ~No
binding of Cat-huMMP-9 ([4]; Direct capture (amine coupling)): binds
binding of Cat-huMMP-9 ([4]; Direct capture (amine coupling), listed as 539A-M0166F10): Yes
binding of Cat-huMMP-9 ([4]; Fc capture (anti-Fc antibody surface)): binds
binding of Cat-huMMP-9 ([4]; Fc capture (anti-Fc antibody surface), listed as 539A-M0166F10): Yes
binding of huTIMP-1 (human TIMP-1): No
binding of huTIMP-1/cat-huMMP-9 (h-MMP-9/h-TIMP-1 complex): no binding was observed
binding of huTIMP-1/cat-huMMP-9 (h-MMP-9/h-TIMP-1 complex; listed as 539A-M0166F10): No
